B1: 1A4Y RA457A (protein, UniProt P13489 2-461, looked up, variant R457A)
Ribonuclease inhibitor: SLDIQSLDIQCEELSDARWAELLPLLQQCQVVRLDDCGLTEARCKDISSALRVNPALAELNLRSNELGDVGVHCVLQGLQTPSCKIQKLSLQNCCLTGAGCGVLSSTLRTLPTLQELHLSDNLLGDAGLQLLCEGLLDPQCRLEKLQLEYCSLSAASCEPLASVLRAKPDFKELTVSNNDINEAGVRVLCQGLKDSPCQLEALKLESCGVTSDNCRDLCGIVASKASLRELALGSNKLGDVGMAELCPGLLHPSSRLRTLWIWECGITAKGCGDLCRVLRAKESLKELSLAGNELGDEGARLLCETLLEPGCQLESLWVKSCSFTAACCSHFSSVLAQNRFLLELQISNNRLEDAGVRELCQGLGQPGSVLRVLWLADCDVSDSSCSSLAATLLANHSLRELDLSNNCLGDAGILQLVESVRQPGCLLEQLVLYDIYWSEEMEDRLQALEKDKPSLAVIS
B2: 1EMV NA24A (protein, UniProt P13479 1-86, looked up, variant N24A)
Colicin-E9 immunity protein: MELKHSISDYTEAEFLQLVTTICAADTSSEEELVKLVTHFEEMTEHPSGSDLIYYPKEGDDDSPSGIVNTVKQWRAANGKSGFKQG
B3: 1EMV NA69A (protein, UniProt P13479 1-86, looked up, variant N69A)
Colicin-E9 immunity protein: B2 Colicin-E9 immunity protein with A24N, N69A
B4: 1EMV SA50A (protein, UniProt P13479 1-86, looked up, variant S50A)
Colicin-E9 immunity protein: B2 Colicin-E9 immunity protein with A24N, S50A
B5: 1EMV SA63A (protein, UniProt P13479 1-86, looked up, variant S63A)
Colicin-E9 immunity protein: B2 Colicin-E9 immunity protein with A24N, S63A
B6: 1EMV SA29A (protein, UniProt P13479 1-86, looked up, variant S29A)
Colicin-E9 immunity protein: B2 Colicin-E9 immunity protein with A24N, S29A
B7: 1EMV TA44A (protein, UniProt P13479 1-86, looked up, variant T44A)
Colicin-E9 immunity protein: B2 Colicin-E9 immunity protein with A24N, T44A
B8: 1EMV SA48A (protein, UniProt P13479 1-86, looked up, variant S48A)
Colicin-E9 immunity protein: B2 Colicin-E9 immunity protein with A24N, S48A
B9: 1DAN QU110A (protein, UniProt P13726 33-251, looked up, variant Q110A)
extracellular domain: SGTTNTVAAYNLTWKSTNFKTILEWEPKPVNQVYTVQISTKSGDWKSKCFYTTDTECDLTDEIVKDVKQTYLARVFSYPAGNVESTGSAGEPLYENSPEFTPYLETNLGAPTIQSFEQVGTKVNVTVEDERTLVRRNNTFLSLRDVFGKDLIYTLYYWKSSSSGKKTAKTNTNEFLIDVDKGENYCFSVQAVIPSRTVNRKSTDSPVECMGQEKGEFRE
modifications: extracellular domain
B10: 1DAN TU132A (protein, UniProt P13726 33-251, looked up, variant T132A)
extracellular domain: B9 extracellular domain with A110Q, T132A
modifications: extracellular domain
B11: 1DAN TU197A (protein, UniProt P13726 33-251, looked up, variant T197A)
extracellular domain: B9 extracellular domain with A110Q, T197A
modifications: extracellular domain
B12: 1DAN TU139A (protein, UniProt P13726 33-251, looked up, variant T139A)
extracellular domain: B9 extracellular domain with A110Q, T139A
modifications: extracellular domain
B13: 1DAN SU163A (protein, UniProt P13726 33-251, looked up, variant S163A)
extracellular domain: B9 extracellular domain with A110Q, S163A
modifications: extracellular domain
B14: 1DAN TU203A (protein, UniProt P13726 33-251, looked up, variant T203A)
extracellular domain: B9 extracellular domain with A110Q, T203A
modifications: extracellular domain
B15: 1DAN TU172A (protein, UniProt P13726 33-251, looked up, variant T172A)
extracellular domain: B9 extracellular domain with A110Q, T172A
modifications: extracellular domain
B16: 2WPT SA50A (protein, UniProt P04482 1-86, looked up, variant S50A)
Colicin-E2 immunity protein: MELKHSISDYTEAEFLEFVKKICRAEGATEEDDNKLVREFERLTEHPDGADLIYYPRDDREDSPEGIVKEIKEWRAANGKSGFKQG
B17: 1DAN KT28A (protein, UniProt P13726 33-251, looked up, variant K28A)
extracellular domain: B9 extracellular domain with K28A, A110Q
modifications: extracellular domain
B18: 1AHW DC178A (protein, UniProt P13726 33-251, looked up, variant D178A)
extracellular domain: B9 extracellular domain with A110Q, D178A
modifications: extracellular domain
B19: 1DAN ET24A (protein, UniProt P13726 33-251, looked up, variant E24A)
extracellular domain: B9 extracellular domain with E24A, A110Q
modifications: extracellular domain
B20: 1DAN KT46A (protein, UniProt P13726 33-251, looked up, variant K46A)
extracellular domain: B9 extracellular domain with K46A, A110Q
modifications: extracellular domain
B21: 1DAN KT20A (protein, UniProt P13726 33-251, looked up, variant K20A)
extracellular domain: B9 extracellular domain with K20A, A110Q
modifications: extracellular domain
B22: 1DAN DT44A (protein, UniProt P13726 33-251, looked up, variant D44A)
extracellular domain: B9 extracellular domain with D44A, A110Q
modifications: extracellular domain
B23: 1DAN KT15A (protein, UniProt P13726 33-251, looked up, variant K15A)
extracellular domain: B9 extracellular domain with K15A, A110Q
modifications: extracellular domain
B24: 1DAN KT41A (protein, UniProt P13726 33-251, looked up, variant K41A)
extracellular domain: B9 extracellular domain with K41A, A110Q
modifications: extracellular domain
B25: 1DAN ET26A (protein, UniProt P13726 33-251, looked up, variant E26A)
extracellular domain: B9 extracellular domain with E26A, A110Q
modifications: extracellular domain

Substitutions are numbered along the chain they refer to.

The first experiment relates to PPIs of the SKEMPI data set (by PDBID). The experiment can be described thus: SKEMPI experimental ΔΔG, single mutations to alanine. It counts as binding. Particulars: class by ΔΔG threshold 4.184 kJ/mol; ref SKEMPI.
For the molecule B1, the “sk_class (class of the SKEMPI experimental ΔΔG)” value is “Neutral (neutral (little effect) 4.184 kJ/mol < ΔΔG > −4.184 kJ/mol)”.

Still in this experiment, the particulars now being: class of the SKEMPI experimental ΔΔG.
In the case of B2, the sk_class result is given as “Neutral (neutral (little effect) 4.184 kJ/mol < ΔΔG > −4.184 kJ/mol)”.
The same measure, in the same setting: in the case of B3 it was “Neutral (neutral (little effect) 4.184 kJ/mol < ΔΔG > −4.184 kJ/mol)”; in that of B4, “Positive (positive (a hot residue) ΔΔG ≥ 4.184 kJ/mol)”.
With B5, the sk_class entry is “Neutral (neutral (little effect) 4.184 kJ/mol < ΔΔG > −4.184 kJ/mol)”.
With B6, the sk_class entry is on record as “Neutral (neutral (little effect) 4.184 kJ/mol < ΔΔG > −4.184 kJ/mol)”.
Same read-out and setting: with B7 the entry was “Neutral (neutral (little effect) 4.184 kJ/mol < ΔΔG > −4.184 kJ/mol)”; with B8, “Neutral (neutral (little effect) 4.184 kJ/mol < ΔΔG > −4.184 kJ/mol)”; with B9, “Positive (positive (a hot residue) ΔΔG ≥ 4.184 kJ/mol)”.
For B10, the sk_class result is listed as “Neutral (neutral (little effect) 4.184 kJ/mol < ΔΔG > −4.184 kJ/mol)”.
Same read-out and setting: in the case of B11 it was “Neutral (neutral (little effect) 4.184 kJ/mol < ΔΔG > −4.184 kJ/mol)”.
Consider B12, for which the sk_class result is reported as “Neutral (neutral (little effect) 4.184 kJ/mol < ΔΔG > −4.184 kJ/mol)”.
In the case of B13, the sk_class entry is recorded as “Neutral (neutral (little effect) 4.184 kJ/mol < ΔΔG > −4.184 kJ/mol)”.
As for B14, the sk_class entry is given as “Neutral (neutral (little effect) 4.184 kJ/mol < ΔΔG > −4.184 kJ/mol)”.
On the same count and under the same terms, in the case of B15 it was “Neutral (neutral (little effect) 4.184 kJ/mol < ΔΔG > −4.184 kJ/mol)”.

The experiment is the same for the next values; noted with them: class of the SKEMPI experimental ΔΔG; ref SKEMPI.
Consider B16, for which the sk_class result is on record as “Positive (positive (a hot residue) ΔΔG ≥ 4.184 kJ/mol)”.
On to B17, for which the sk_class entry is recorded as “Neutral (neutral (little effect) 4.184 kJ/mol < ΔΔG > −4.184 kJ/mol)”.
For B18, the sk_class result is reported as “Neutral (neutral (little effect) 4.184 kJ/mol < ΔΔG > −4.184 kJ/mol)”.
On the same count and under the same terms, with B19 the entry was “Neutral (neutral (little effect) 4.184 kJ/mol < ΔΔG > −4.184 kJ/mol)”; with B20, “Neutral (neutral (little effect) 4.184 kJ/mol < ΔΔG > −4.184 kJ/mol)”.
On the same count and under the same terms, with B21 the entry was “Positive (positive (a hot residue) ΔΔG ≥ 4.184 kJ/mol)”; with B22, “Positive (positive (a hot residue) ΔΔG ≥ 4.184 kJ/mol)”.
As for B23, the sk_class result is given as “Neutral (neutral (little effect) 4.184 kJ/mol < ΔΔG > −4.184 kJ/mol)”.
Consider B24, for which the sk_class entry is given as “Neutral (neutral (little effect) 4.184 kJ/mol < ΔΔG > −4.184 kJ/mol)”.
As to B25, the sk_class entry is “Neutral (neutral (little effect) 4.184 kJ/mol < ΔΔG > −4.184 kJ/mol)”.

The next experiment has the same test system.
Test: not given
Particulars: SKEMPI experimental ΔΔG of binding, single mutation to alanine; complex by PDBID; ref SKEMPI; cited from earlier work.
Regarding B17, the sk_ddG_kJ is given as 0.50 kJ.
B18: the sk_ddG_kJ is given as -2.01 kJ.
As to B19, the sk_ddG_kJ is 2.76 kJ.
Turning to B20, the sk_ddG_kJ is 1.00 kJ.
On to B21, for which the sk_ddG_kJ is 10.21 kJ.
As for B22, the sk_ddG_kJ was 10.00 kJ.
Take B23: the sk_ddG_kJ is recorded as -1.63 kJ.
Regarding B24, the sk_ddG_kJ is listed as 1.38 kJ.
As to B25, the sk_ddG_kJ is given as 0.46 kJ.

The same experiment, now with this note: single mutation to alanine; PPI given by PDBID; sheet sortedByGroup, r_group DERKH; ref SKEMPI; cited from earlier work.
Turning to B1, the “sk_ddG_kJ (SKEMPI experimental ΔΔG, mutation to alanine)” value is reported as -0.92 kJ.

The experiment is the same for the next values; noted with them: single mutation to alanine; complex given by PDBID, chain and residue by mut_pdb; ref SKEMPI; cited from earlier work.
In the case of B16, the “sk_ddG_kJ (SKEMPI experimental ΔΔG, mutation to alanine)” value is recorded as 10.04 kJ.

Still in this experiment, the particulars now being: single mutation to alanine; complex given by PDBID; residue group SQNT; ref SKEMPI; cited from earlier work.
Turning to B2, the “sk_ddG_kJ (SKEMPI experimental ΔΔG)” value is given as 0.59 kJ.
With B3, the “sk_ddG_kJ (SKEMPI experimental ΔΔG)” value is recorded as 1.17 kJ.
Consider B4, for which the “sk_ddG_kJ (SKEMPI experimental ΔΔG)” value is 9.16 kJ.
As to B5, the “sk_ddG_kJ (SKEMPI experimental ΔΔG)” value was 3.64 kJ.
For B6, the “sk_ddG_kJ (SKEMPI experimental ΔΔG)” value is given as 4.02 kJ.
For B7, the “sk_ddG_kJ (SKEMPI experimental ΔΔG)” value is 1.26 kJ.
On to B8, for which the “sk_ddG_kJ (SKEMPI experimental ΔΔG)” value is listed as 0.04 kJ.
For B9, the “sk_ddG_kJ (SKEMPI experimental ΔΔG)” value is 5.44 kJ.
On to B10, for which the “sk_ddG_kJ (SKEMPI experimental ΔΔG)” value is on record as 0.00 kJ.
With B11, the “sk_ddG_kJ (SKEMPI experimental ΔΔG)” value is given as 0.46 kJ.
As for B12, the “sk_ddG_kJ (SKEMPI experimental ΔΔG)” value is given as -0.04 kJ.
As to B13, the “sk_ddG_kJ (SKEMPI experimental ΔΔG)” value was 0.08 kJ.
Turning to B14, the “sk_ddG_kJ (SKEMPI experimental ΔΔG)” value is recorded as 0.59 kJ.
Consider B15, for which the “sk_ddG_kJ (SKEMPI experimental ΔΔG)” value is given as -0.08 kJ.

These data come from PMC6804253, “Predicting and Experimentally Validating Hot-Spot Residues at Protein–Protein Interfaces” (ACS Chemical Biology, 2019).
